Key:
Assay in all cases: SPR
[1] = biological target: VRC01 expressed in the ΔXT/FT N. benthamiana plant line (VRC01ΔXF) (human)
[2] = biological target: plant‐produced VRC01 variant lacking Fc N‐glycans, N297S (VRC01aglyco) (human)
[3] = biological target: VRC01 expressed transiently in WT N. benthamiana (VRC01WT) (human)
[4] = biological target: VRC01 co‐expressed with human β1,4‐galactosyltransferase in the ΔXT/FT plant line (VRC01Gal) (human)
[5] = biological target: VRC01 antibody derived from HEK cells (VRC01HEK) (human)
Sequence of VRC01 antibody derived from HEK cells (VRC01HEK) (human) (light, as listed by the source, chain 2 of 2, other chains not shown): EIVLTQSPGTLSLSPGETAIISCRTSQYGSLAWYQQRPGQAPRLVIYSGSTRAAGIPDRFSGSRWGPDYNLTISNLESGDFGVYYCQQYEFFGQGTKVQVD

Sequence of VRC01 expressed transiently in WT N. benthamiana (VRC01WT) (human) (light, as listed by the source, chain 2 of 2, other chains not shown): as above
Sequence of recombinant human FcγRI ectodomain (P12314 16-292): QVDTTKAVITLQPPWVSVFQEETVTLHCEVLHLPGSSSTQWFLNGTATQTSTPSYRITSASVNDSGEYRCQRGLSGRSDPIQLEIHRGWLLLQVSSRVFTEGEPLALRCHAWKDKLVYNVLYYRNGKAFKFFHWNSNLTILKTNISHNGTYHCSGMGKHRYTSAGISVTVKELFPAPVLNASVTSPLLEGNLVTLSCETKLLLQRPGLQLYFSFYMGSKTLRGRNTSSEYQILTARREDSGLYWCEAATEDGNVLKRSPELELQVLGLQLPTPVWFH
Sequence of VRC01 expressed in the ΔXT/FT N. benthamiana plant line (VRC01ΔXF) (human) (light, as listed by the source, chain 2 of 2, other chains not shown): as the sequence (light, as listed by the source, chain 2 of 2, other chains not shown) above
Sequence of VRC01 co‐expressed with human β1,4‐galactosyltransferase in the ΔXT/FT plant line (VRC01Gal) (human) (light, as listed by the source, chain 2 of 2, other chains not shown): as above
Sequence of plant‐produced VRC01 variant lacking Fc N‐glycans, N297S (VRC01aglyco) (human) (light, as listed by the source, chain 2 of 2, other chains not shown): as above

Substance	Kd [1] [nM]	Kd [2] [nM]	Kd [3] [nM]	half‐life of the antibody–FcγRI complex [3] [min]	Kd [4] [nM]	Kd [5] [nM]
recombinant human FcγRI ectodomain (from UniProt P12314 16-292) (receptor)	0.247	71	3	5	0.558	0.098
recombinant human FcγRIIb ectodomain (from UniProt P31994 43-217) (receptor)	2500		> 7000		3700	3400
